Experimental data published in paper PMC10547764, “KaScape: a sequencing-based method for global characterization of protein‒DNA binding affinity”.

B1: KaScape n=4 member GACT (dsDNA)
DNA 1: GCGCTGACTAGGAGTGGGATCCGGGGGGGG
DNA 2: CCCCCCCCGGATCCCACTCCTAGTCAGCGC
B2: type 2 (GACCT) (dsDNA)
DNA 1: GCGCTGACCTAGGAG
DNA 2: CTCCTAGGTCAGCGC
B3: type 1 (GACCG) (dsDNA)
DNA 1: GCGCTGACCGAGGAG
DNA 2: CTCCTCGGTCAGCGC
B4: type 8 (GGACC) (dsDNA)
DNA 1: GCGCTGGACCAGGAG
DNA 2: CTCCTGGTCCAGCGC
B5: type 7 (CGACC) (dsDNA)
DNA 1: GCGCTCGACCAGGAG
DNA 2: CTCCTGGTCGAGCGC
B6: type 5 (AGACC) (dsDNA)
DNA 1: GCGCTAGACCAGGAG
DNA 2: CTCCTGGTCTAGCGC
B7: type 3 (GACCC) (dsDNA)
DNA 1: GCGCTGACCCAGGAG
DNA 2: CTCCTGGGTCAGCGC
B8: type 6 (TGACC) (dsDNA)
DNA 1: GCGCTTGACCAGGAG
DNA 2: CTCCTGGTCAAGCGC
B9: type 4 (GACCA) (dsDNA)
DNA 1: GCGCTGACCAAGGAG
DNA 2: CTCCTTGGTCAGCGC

Each binder was assayed against T1, AtWRKY1N (N-terminal WRKY DNA-binding domain) (UniProt Q9SI37 105-169) (assay: KaScape pull-down + NGS; random n=4 pool; second strongest; KaScape: 2e-11 mol protein and 1e-10 mol dsDNA in 2 mL, 30 min, Ni beads 1 h at 4 C, washes in buffer C (25 mM HEPES pH 7.0, 100 mM NaCl); EMSA buffer not given). Conditions: protein: recombinant; tags: C-terminal His-tag (pET21b).
T1 sequence (Q9SI37 105-169): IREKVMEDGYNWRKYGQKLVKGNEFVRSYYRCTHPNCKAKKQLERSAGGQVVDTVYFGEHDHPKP
B1: binds.

These binders were tested against T1, AtWRKY1N (N-terminal WRKY DNA-binding …) (assay: EMSA; protein:DNA 1:1 and 2:1; KaScape: 2e-11 mol protein and 1e-10 mol dsDNA in 2 mL, 30 min, Ni beads 1 h at 4 C, washes in buffer C (25 mM HEPES pH 7.0, 100 mM NaCl); EMSA buffer not given). Conditions: protein: recombinant; tags: C-terminal His-tag (pET21b).
B2: binds. B3: binds. B4: binds. B5: no binding. B6: binds. B7: binds. B8: binds. B9: binds.
